Kd and response (Absorbance data for 5 substances are collected here from publication PMC6488583.

The target in assay [1] is full-length human fibronectin (UniProt P02751). Description: SPR; Biacore T200; FN amine-coupled to a CM5 chip (1000 RU and 5000 RU); α^UpaB 0.8–100 µM injected; 25 °C, PBS-T (PBS pH 7.4, 0.05% Tween 20); steady-state affinity model; apparent. (Surface plasmon resonance follows binding to a sensor surface in real time, without labels.)
For assay [2] the target is unchanged. Put plainly: ELISA. As to conditions: parent: est. 0.29; read off a plot. (ELISA stands for enzyme-linked immunosorbent assay.)

Chain of full-length human fibronectin (P02751 32-2477): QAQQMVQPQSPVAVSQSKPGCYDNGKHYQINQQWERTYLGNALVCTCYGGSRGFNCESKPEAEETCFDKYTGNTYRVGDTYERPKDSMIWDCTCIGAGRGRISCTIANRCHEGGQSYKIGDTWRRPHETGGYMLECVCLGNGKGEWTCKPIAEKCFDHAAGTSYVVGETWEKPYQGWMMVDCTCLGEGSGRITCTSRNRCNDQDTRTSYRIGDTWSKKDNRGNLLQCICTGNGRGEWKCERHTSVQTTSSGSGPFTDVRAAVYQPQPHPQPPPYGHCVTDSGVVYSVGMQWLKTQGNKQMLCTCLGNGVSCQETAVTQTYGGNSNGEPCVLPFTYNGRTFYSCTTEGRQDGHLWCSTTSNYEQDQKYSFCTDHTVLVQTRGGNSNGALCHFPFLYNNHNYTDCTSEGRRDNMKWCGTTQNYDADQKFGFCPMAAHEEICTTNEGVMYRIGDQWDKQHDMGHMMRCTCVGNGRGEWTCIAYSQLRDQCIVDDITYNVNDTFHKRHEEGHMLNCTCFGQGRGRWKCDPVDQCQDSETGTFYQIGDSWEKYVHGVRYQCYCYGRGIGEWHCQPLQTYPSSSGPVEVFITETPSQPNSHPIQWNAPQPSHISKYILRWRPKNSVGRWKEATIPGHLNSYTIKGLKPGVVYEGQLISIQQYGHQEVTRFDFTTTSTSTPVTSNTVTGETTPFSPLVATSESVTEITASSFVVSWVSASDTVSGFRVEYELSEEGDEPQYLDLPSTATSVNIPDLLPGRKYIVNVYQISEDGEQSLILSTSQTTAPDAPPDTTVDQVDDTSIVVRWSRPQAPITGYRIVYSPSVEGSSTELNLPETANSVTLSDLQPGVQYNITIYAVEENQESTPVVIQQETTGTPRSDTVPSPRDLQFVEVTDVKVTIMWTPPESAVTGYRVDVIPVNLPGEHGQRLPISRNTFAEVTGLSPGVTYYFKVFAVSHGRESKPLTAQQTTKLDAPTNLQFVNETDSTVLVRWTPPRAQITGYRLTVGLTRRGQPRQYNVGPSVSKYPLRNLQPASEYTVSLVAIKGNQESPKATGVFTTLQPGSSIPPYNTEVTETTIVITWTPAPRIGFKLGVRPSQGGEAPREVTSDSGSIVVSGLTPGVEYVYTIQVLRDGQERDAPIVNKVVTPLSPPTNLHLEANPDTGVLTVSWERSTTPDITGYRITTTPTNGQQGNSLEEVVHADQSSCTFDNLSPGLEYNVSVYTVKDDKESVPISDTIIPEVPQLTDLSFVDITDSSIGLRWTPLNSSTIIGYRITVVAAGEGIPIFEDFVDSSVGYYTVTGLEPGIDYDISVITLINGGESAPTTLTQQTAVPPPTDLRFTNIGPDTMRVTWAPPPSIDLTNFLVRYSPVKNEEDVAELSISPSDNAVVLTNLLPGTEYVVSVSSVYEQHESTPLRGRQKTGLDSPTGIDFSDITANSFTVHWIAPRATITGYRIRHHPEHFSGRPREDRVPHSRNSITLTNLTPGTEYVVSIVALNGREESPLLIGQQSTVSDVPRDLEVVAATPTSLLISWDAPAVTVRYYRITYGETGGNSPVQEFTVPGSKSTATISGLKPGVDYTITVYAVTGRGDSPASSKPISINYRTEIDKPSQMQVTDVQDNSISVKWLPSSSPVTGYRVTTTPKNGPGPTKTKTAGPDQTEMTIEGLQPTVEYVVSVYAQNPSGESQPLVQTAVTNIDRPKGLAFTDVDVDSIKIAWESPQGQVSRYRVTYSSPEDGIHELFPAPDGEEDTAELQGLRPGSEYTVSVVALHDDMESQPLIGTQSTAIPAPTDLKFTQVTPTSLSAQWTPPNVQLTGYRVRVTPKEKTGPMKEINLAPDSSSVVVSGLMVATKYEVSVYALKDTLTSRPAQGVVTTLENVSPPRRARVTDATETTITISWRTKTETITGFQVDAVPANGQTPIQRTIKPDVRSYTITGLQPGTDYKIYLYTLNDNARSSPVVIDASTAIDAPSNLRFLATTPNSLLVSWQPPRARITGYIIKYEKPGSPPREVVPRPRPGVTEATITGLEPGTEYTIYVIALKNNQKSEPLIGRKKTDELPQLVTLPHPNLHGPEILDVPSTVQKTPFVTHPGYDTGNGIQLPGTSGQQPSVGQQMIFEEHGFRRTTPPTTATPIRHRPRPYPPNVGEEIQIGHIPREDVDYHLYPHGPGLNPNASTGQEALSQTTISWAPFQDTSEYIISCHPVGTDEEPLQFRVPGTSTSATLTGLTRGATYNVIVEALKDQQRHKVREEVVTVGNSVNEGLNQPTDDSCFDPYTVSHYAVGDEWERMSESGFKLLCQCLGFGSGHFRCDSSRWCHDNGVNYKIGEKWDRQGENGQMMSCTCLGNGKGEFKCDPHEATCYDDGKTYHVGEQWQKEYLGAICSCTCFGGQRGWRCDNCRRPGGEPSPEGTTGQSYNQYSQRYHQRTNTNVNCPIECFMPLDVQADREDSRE

Regarding “UpaB α-domain (α^UpaB), residues 38–500, from UPEC CFT073 (domain or fragment; other documents disagree on this pair)”, in assay [1], the Kd is 45.2 µM.

“UpaB α-domain (α^UpaB), residues 38–500, from UPEC CFT073 E103A; D138A; E165A; E226A”: in assay [2], the response (Absorbance at 405 nm) turned out to be 0.27.

As for “UpaB α-domain (α^UpaB), residues 38–500, from UPEC CFT073 E165A; N189A; Q197A; N200A; Q203A; K256A; N316A”, the response (Absorbance at 405 nm) in assay [2] was determined as 0.33.

Take “UpaB α-domain (α^UpaB), residues 38–500, from UPEC CFT073 F101A; Y130A; Y187A; F195A; L201G; L202G; Y260A”: the response (Absorbance at 405 nm) in assay [2] is 0.21.

On to “UpaB α-domain (α^UpaB), residues 38–500, from UPEC CFT073 N116A; D119A; N146A; N175A; D217A; K245A; D246A; D281A; R310A; D336A”, for which the response (Absorbance at 405 nm) in assay [2] was determined as 0.039.
